Substitutions are numbered along the chain they refer to.
B1: Example 1162 (peptide)
chain: YXQGTXTSDXXIXLDXKAQXEFIEXLVEGGPSSGAPPPSGSE
modifications: non-natural residues; Lys acylated C18 diacid via γGlu2; C-term amide; synthetic construct; SITE 2: note = 2-Aminoisobutyric Acid; SITE 6: note = alpha-methyl-2-fluoro-L-phenylalanine; SITE 10: note = 3-(4-Pyridyl)-L-alanine; SITE 11: note = alpha-methyl-L-serine; SITE 13: note = alpha-methyl-leucine; SITE 16: note = L-ornithine; SITE 17: note = Lysine is chemically mo
B2: Example 1167 (peptide)
chain: B1 chain with V27I, A35E
modifications: non-natural residues; Lys acylated C18 diacid; C-terminal amide; synthetic construct; SITE 2: note = 2-Aminoisobutyric Acid; SITE 6: note = alpha-methyl-L-phenylalanine; SITE 10: note = 3-(4-Pyridyl)-L-alanine; SITE 11: note = alpha-methyl-L-serine; SITE 13: note = alpha-methyl-leucine; SITE 16: note = L-ornithine; SITE 17: note = Lysine is chemically modified th
B3: Example 1173 (peptide)
chain: B1 chain with V27I, A35E
modifications: (γGlu)2-C18 diacid on Lys; non-natural residues; amide; synthetic construct; SITE 2: note = 2-Aminoisobutyric Acid; SITE 6: note = alpha-methyl-L-phenylalanine; SITE 10: note = …; SITE 11: note = alpha-methyl-L-serine; SITE 13: note = alpha-methyl-leucine; SITE 16: note = L-ornithine; SITE 17: note = Lysine is chemically modified th
B4: Example 1179 (peptide)
chain: B1 chain with V27I, A35E
modifications: non-natural residues, C-terminal amide, acylated Lys with fatty diacid; synthetic construct; SITE 2: note = 2-Aminoisobutyric Acid; SITE 6: note = alpha-methyl-2-fluoro-L-phenylalanine; SITE 10: note = 3-(4-Pyridyl)-L-alanine; SITE 11: note = alpha-methyl-L-serine; SITE 13: note = alpha-methyl-leucine; SITE 16: note = L-ornithine; SITE 17: note = Lysine is chemically mo
B5: Example 1166 (peptide)
chain: B1 chain with V27I
modifications: Aib, αMeF, 4Pal, αMeS, αMeL, Orn, Me4Pal, αMeY, acyl, amide; synthetic construct; SITE 2: note = 2-Aminoisobutyric Acid; SITE 6: note = alpha-methyl-L-phenylalanine; SITE 10: note = 3-(4-Pyridyl)-L-alanine; SITE 11: note = alpha-methyl-L-serine; SITE 13: note = alpha-methyl-leucine; SITE 16: note = L-ornithine; SITE 17: note = Lysine is chemically modified th
B6: Example 1163 (peptide)
chain: B1 chain with A35E
modifications: non-natural residues; lipidated Lys; C-terminal amide; synthetic construct; SITE 2: note = 2-Aminoisobutyric Acid; SITE 6: note = alpha-methyl-2-fluoro-L-phenylalanine; SITE 10: note = 3-(4-Pyridyl)-L-alanine; SITE 11: note = alpha-methyl-L-serine; SITE 13: note = alpha-methyl-leucine; SITE 16: note = L-ornithine; SITE 17: note = Lysine is chemically mo
B7: Example 1172 (peptide)
chain: B1 chain with V27I
modifications: Aib, αMe residues, 4Pal, Orn, Me4Pal; acylated K; amide; synthetic construct; SITE 2: note = 2-Aminoisobutyric Acid; SITE 6: note = alpha-methyl-L-phenylalanine; SITE 10: note = 3-(4-Pyridyl)-L-alanine; SITE 11: note = alpha-methyl-L-serine; SITE 13: note = alpha-methyl-leucine; SITE 16: note = L-ornithine; SITE 17: note = Lysine is chemically modified th
B8: Example 1178 (peptide)
chain: B1 chain with V27I
modifications: non-natural residues; AEEA-(γGlu)2-C18 diacid on Lys; amide; synthetic construct; SITE 2: note = 2-Aminoisobutyric Acid; SITE 6: note = alpha-methyl-2-fluoro-L-phenylalanine; SITE 10: note = 3-(4-Pyridyl)-L-alanine; SITE 11: note = alpha-methyl-L-serine; SITE 13: note = alpha-methyl-leucine; SITE 16: note = L-ornithine; SITE 17: note = Lysine is chemically mo
B9: Example 1160 (peptide)
chain: YXQGTXTSDXXIXLDXKAQXEFIEXLVEGGPSSGAPPPSGE
modifications: C-terminal amide; lysine acylated with (γ-Glu)2-C18 diacid; synthetic construct; SITE 2: note = 2-Aminoisobutyric Acid; SITE 6: note = alpha-methyl-2-fluoro-L-phenylalanine; SITE 10: note = 3-(4-Pyridyl)-L-alanine; SITE 11: note = alpha-methyl-L-serine; SITE 13: note = alpha-methyl-leucine; SITE 16: note = L-ornithine; SITE 17: note = Lysine is chemically mo
B10: Example 1164 (peptide)
chain: B9 chain with V27I
modifications: non-natural residues; acylated Lys C18 diacid; C-term amide; synthetic construct; SITE 2: note = 2-Aminoisobutyric Acid; SITE 6: note = alpha-methyl-L-phenylalanine; SITE 10: note = 3-(4-Pyridyl)-L-alanine; SITE 11: note = alpha-methyl-L-serine; SITE 13: note = alpha-methyl-leucine; SITE 16: note = L-ornithine; SITE 17: note = Lysine is chemically modified th
B11: Example 1161 (peptide)
chain: B9 chain with A35E
modifications: Aib, αMeF(2F), 4Pal, αMeS, αMeL, Orn, Me4Pal, αMeY; lipidated Lys; amide; synthetic construct; SITE 2: note = 2-Aminoisobutyric Acid; SITE 6: note = alpha-methyl-2-fluoro-L-phenylalanine; SITE 10: note = 3-(4-Pyridyl)-L-alanine; SITE 11: note = alpha-methyl-L-serine; SITE 13: note = alpha-methyl-leucine; SITE 16: note = L-ornithine; SITE 17: note = Lysine is chemically mo
B12: Example 1177 (peptide)
chain: B9 chain with V27I, A35E
modifications: non-natural residues; Lys acylated C18 diacid via AEEA-γGlu2; C-term amide; synthetic construct; SITE 2: note = 2-Aminoisobutyric Acid; SITE 6: note = alpha-methyl-2-fluoro-L-phenylalanine; SITE 10: note = 3-(4-Pyridyl)-L-alanine; SITE 11: note = alpha-methyl-L-serine; SITE 13: note = alpha-methyl-leucine; SITE 16: note = L-ornithine; SITE 17: note = Lysine is chemically mo
B13: Example 1170 (peptide)
chain: B9 chain with V27I
modifications: non-natural residues; acylated Lys; C-terminal amide; synthetic construct; SITE 2: note = 2-Aminoisobutyric Acid; SITE 6: note = alpha-methyl-L-phenylalanine; SITE 10: note = 3-(4-Pyridyl)-L-alanine; SITE 11: note = alpha-methyl-L-serine; SITE 13: note = alpha-methyl-leucine; SITE 16: note = L-ornithine; SITE 17: note = Lysine is chemically modified th

Each binder was assayed against hGLP-1R (Homo sapiens, UniProt P43220) (assay: cell-based or functional assay).
hGLP-1R, sequence (P43220 24-463): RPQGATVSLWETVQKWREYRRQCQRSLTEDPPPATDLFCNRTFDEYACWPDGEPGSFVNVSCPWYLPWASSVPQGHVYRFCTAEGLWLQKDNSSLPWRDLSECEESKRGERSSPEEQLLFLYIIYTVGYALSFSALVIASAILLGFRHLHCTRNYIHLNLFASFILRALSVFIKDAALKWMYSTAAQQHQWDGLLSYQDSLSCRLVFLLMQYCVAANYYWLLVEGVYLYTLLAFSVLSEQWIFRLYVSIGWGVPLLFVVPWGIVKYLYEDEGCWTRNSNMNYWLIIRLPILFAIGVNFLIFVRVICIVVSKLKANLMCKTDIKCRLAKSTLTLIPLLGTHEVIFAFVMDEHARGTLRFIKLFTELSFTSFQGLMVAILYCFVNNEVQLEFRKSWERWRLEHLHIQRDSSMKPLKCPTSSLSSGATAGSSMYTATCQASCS

Row | Binder | Relative cAMP EC50 | cAMP Rel EC50 (in the presence of 1% HSA)
1 | B1 | 0.372 nM | 34.5 nM
2 | B2 | 0.636 nM | 89.2 nM
3 | B3 | 0.604 nM | 59.1 nM
4 | B4 | 0.652 nM | 37.9 nM
5 | B5 | 0.478 nM | 65.6 nM
6 | B6 | 0.449 nM | 35.4 nM
7 | B7 | 0.44 nM | 45.5 nM
8 | B8 | – | 39 nM
9 | B9 | 0.365 nM | 31.2 nM
10 | B10 | 0.495 nM | 63.5 nM
11 | B11 | 0.39 nM | 35.5 nM
12 | B12 | 0.681 nM | 43.6 nM
13 | B13 | 0.395 nM | 50.2 nM

What follows are binders tested against T1, human GIP receptor (human) (UniProt P48546) (assay: cell-based or functional assay).
T1 sequence (looked up): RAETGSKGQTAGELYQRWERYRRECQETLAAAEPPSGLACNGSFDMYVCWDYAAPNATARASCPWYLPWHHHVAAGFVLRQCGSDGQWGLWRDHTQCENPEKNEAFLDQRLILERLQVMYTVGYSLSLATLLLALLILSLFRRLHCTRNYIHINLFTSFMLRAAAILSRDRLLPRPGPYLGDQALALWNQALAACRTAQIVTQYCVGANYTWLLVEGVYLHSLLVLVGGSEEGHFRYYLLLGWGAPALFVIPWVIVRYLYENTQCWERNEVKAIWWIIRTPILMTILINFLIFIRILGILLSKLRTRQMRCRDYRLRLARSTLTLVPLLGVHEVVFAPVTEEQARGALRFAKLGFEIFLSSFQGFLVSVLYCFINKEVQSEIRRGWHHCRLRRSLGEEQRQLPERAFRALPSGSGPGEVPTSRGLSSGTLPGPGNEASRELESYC

Row | Binder | Relative cAMP EC50 | cAMP Rel EC50 (in the presence of 1% HSA)
14 | B1 | 0.00818 nM | 0.656 nM
15 | B2 | 0.011 nM | 1.22 nM
16 | B3 | 0.00943 nM | 0.764 nM
17 | B4 | 0.0102 nM | 0.58 nM
18 | B5 | 0.00999 nM | 1.1 nM
19 | B6 | 0.00951 nM | 0.721 nM
20 | B7 | 0.00886 nM | 0.7 nM
21 | B8 | – | 0.544 nM
22 | B9 | 0.00773 nM | 0.598 nM
23 | B10 | 0.0104 nM | 1.17 nM
24 | B11 | 0.00973 nM | 0.733 nM
25 | B12 | 0.0114 nM | 0.544 nM
26 | B13 | 0.00783 nM | 0.663 nM

What follows are binders tested against human glucagon receptor (human) (UniProt P47871) (assay: cell-based or functional assay).
human glucagon receptor (human), sequence (P47871 26-477): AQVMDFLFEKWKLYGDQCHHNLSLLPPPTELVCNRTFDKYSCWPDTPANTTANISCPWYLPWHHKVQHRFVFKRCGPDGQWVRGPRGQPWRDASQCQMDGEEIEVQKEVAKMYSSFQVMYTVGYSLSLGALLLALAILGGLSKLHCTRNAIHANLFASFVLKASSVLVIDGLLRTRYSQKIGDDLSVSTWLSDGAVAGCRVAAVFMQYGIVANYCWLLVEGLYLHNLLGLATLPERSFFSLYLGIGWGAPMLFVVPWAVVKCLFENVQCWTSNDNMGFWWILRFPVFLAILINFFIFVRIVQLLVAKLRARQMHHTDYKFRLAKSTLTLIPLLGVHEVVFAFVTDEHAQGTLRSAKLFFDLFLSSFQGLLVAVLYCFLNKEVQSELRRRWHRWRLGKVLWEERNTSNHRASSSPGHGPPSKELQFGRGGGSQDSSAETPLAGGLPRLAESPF

Row | Binder | Relative cAMP EC50 | cAMP Rel EC50 (in the presence of 1% HSA)
27 | B1 | 2.55 nM | 199 nM
28 | B2 | 2.16 nM | 274 nM
29 | B3 | 2.31 nM | 254 nM
30 | B4 | 2.87 nM | 197 nM
31 | B5 | 2.94 nM | 427 nM
32 | B6 | 1.75 nM | 163 nM
33 | B7 | 2.52 nM | 303 nM
34 | B8 | – | 270 nM
35 | B9 | 2.41 nM | 183 nM
36 | B10 | 2.83 nM | 359 nM
37 | B11 | 2.19 nM | 217 nM
38 | B12 | 4.23 nM | 156 nM
39 | B13 | 2.43 nM | 249 nM

From patent US20240270821A1, “GIP/GLP1/GCG TRI-RECEPTOR AGONISTS AND USES THEREOF” (priority 2023, published 2024)
